Molecular target: Bcl-xL (UniProt Q07817)
Assay: anti-myc co-IP, Bcl-xL immunoblot
Settings: reference: myc-Rad9 wild type; sites S328

binding against the reference: weaker
Substance: Rad9 (from UniProt Q99638) myc-Rad9 S328A
